# In patent publication US20230414735A1 (BIONTECH US, published 2023):
# Legend:
# HLA-B08:01 [1] = target: HLA-B08:01 (human); assay: pMHC-I dissociation half-life, 125I-b2m
# Procedure: Briefly, synthetic genes encoding biotinylated MHC-I heavy and light chains are expressed in E. coli and purified from inclusion bodies using standard methods. The light chain (β2m) is radio-labeled with iodine (¹²⁵I), and combined with the purified MHC-I heavy chain and peptide of interest at 18° C. to initiate pMHC-I complex formation. These reactions are carried out in streptavidin coated microplates to bind th biotinylated MHC-I heavy chains to the surface and allow measurement of radiolabeled light chain to monitor complex formation. Dissociation is initiated by addition of higher concentations of unlabled light-chain and incubation at 37° C. Stability is defined as the length of time in hours it takes for half of the complexes to dissociate, as measured by scintillation counts
# HLA-B08:01 [2] = target: HLA-B08:01 (human); assay: competition with 125I probe peptide on purified HLA
# Procedure: Immunol. 31:813, 1994; Sidney et al., in Current Protocols in Immunology, Margulies, Ed., John Wiley & Sons, New York, Section 18.3, 1998).
# (§1) Following incubation, MHC-peptide complexes are separated from free peptide by gel filtration on 7.8 mm×15 cm TSK200 columns (TosoHaas 16215, Montgomeryville, PA). Because the large size of the radiolabeled peptide used for the DRB1*1501 (DR2w2(31) assay makes separation of bound from unbound peaks more difficult under these conditions, all DRB1*1501 (DR2w2(31) assays were performed using a 7.8 mm×30 cm TSK2000 column eluted at 0.6 mLs/min. The eluate from the TSK columns is passed through a Beckman 170 radioisotope detector, and radioactivity is plotted and integrated using a Hewlett-Packard 3396A integrator, and the fraction of peptide bound is determined.
# (§2) Since under these conditions [label]<[HLA] and IC₅₀≥[HLA], the measured IC₅₀ values are reasonable approximations of the true KD values. […] For database purposes, and inter-experiment comparisons, relative binding values are compiled. These values can subsequently be converted back into IC₅₀ nM values by dividing the IC₅₀ nM of the positive controls for inhibition by the relative binding of the peptide of interest.
# HLA-B08:01 [3] = target: HLA-B08:01 (human); assay: competition with 125I probe peptide for purified HLA class I
# Procedure: as §1, §2
Binder,Stability (T1/2 (h)) (HLA-B08:01 [1]),IC50 (HLA-B08:01 [2]),IC50 (HLA-B08:01 [3])
"FQNGKMALSA (FRG1B, L52S)",0 h,–,–
"FELLSTPPL (MYC, P57S)",0 h,3180 nM,–
"SLGNHLCPL (MLL2, CRLS)",0.5 h,–,–
LSLMPAHWSI (JAK1(-1)),0 h,–,–
FLLALWECSL (MSH3(-1)),0 h,–,–
LKKLRSPL (also called SMAP1(-1)),–,–,0.6 nM
FLQEQYHEA (GATA3 YHEA),0 h,–,–

# Second part, the binder after the results:
Stability (T1/2 (h)) (HLA-B08:01 [1]),IC50 (HLA-B08:01 [2]),IC50 (HLA-B08:01 [3]),Binder
1.2 h,–,–,"YVMAYVMAG (HER2, G776insYVMA)"
0 h,–,–,"YVMAYVMAGV (HER2, G776insYVMA)"
0 h,872 nM,–,"YLGNHMNIA (KIT, V654A)"
0 h,–,–,SQIMSLWGL (NAB:STAT6 (variant 1 of Chmielecki et al.))
0.4 h,–,–,YMFLKAESKI (GATA3 CSNH)
0 h,–,–,SLMPAHWSI (JAK1(-1))
